Experiments:
Assay in all cases: receptor-Fc IP
[1] = molecular target: T1, VEGFR-1-Fc (UniProt P17948 27-338)
T1 construct: domain: first three Ig domains; expressed in Drosophila S2 cells, purified on Protein A sepharose; also called VEGFR-1-Fc fusion protein; not shown: Fc fragment from the Signal-pIgPlus vector
Method in brief: (§1)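 Binding of ligand from sample supernatant measured by pentahistidine-antibody immunoprecipitation. IP mix: PBS with 1.5% BSA, 0.06% Tween 20, 3 μg/ml heparin and 400 ng/ml fusion protein, added 1:2 to sample supernatant.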

[2] = molecular target: T2, VEGFR-2-Fc (UniProt P35968 20-322)
T2 construct: domain: first 3 Ig domains; conditioned supernatant of 293T cells; also called VEGFR-2-Fc fusion protein; not shown: Fc fragment of the pIg vector
Method in brief: as §1

[3] = molecular target: T3, VEGFR-3-Fc (UniProt P35916 25-328)
T3 construct: domain: first three Ig domains; conditioned supernatant of 293T cells; also called VEGFR-3-Fc fusion protein; not shown: Fc fragment of the pIg vector
T3 sequence (looked up): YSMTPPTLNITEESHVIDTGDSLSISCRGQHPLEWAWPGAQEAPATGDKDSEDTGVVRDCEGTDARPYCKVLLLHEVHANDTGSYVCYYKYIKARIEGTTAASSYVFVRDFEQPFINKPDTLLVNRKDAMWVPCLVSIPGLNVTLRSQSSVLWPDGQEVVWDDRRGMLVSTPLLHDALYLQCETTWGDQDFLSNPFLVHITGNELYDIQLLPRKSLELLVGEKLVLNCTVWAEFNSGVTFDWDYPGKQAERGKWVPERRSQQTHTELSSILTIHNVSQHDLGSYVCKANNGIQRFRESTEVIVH
Method in brief: as §1

Measured: binding result

T2 sequence (P35968 20-322): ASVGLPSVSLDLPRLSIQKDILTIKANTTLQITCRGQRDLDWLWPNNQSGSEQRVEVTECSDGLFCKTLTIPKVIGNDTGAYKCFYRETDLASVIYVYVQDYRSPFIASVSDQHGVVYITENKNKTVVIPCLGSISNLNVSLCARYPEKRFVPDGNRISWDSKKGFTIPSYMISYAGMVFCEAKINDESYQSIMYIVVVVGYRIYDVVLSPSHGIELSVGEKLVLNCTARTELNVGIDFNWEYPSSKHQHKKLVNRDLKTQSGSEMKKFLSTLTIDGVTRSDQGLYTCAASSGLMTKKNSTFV
T1 sequence (P17948 27-338): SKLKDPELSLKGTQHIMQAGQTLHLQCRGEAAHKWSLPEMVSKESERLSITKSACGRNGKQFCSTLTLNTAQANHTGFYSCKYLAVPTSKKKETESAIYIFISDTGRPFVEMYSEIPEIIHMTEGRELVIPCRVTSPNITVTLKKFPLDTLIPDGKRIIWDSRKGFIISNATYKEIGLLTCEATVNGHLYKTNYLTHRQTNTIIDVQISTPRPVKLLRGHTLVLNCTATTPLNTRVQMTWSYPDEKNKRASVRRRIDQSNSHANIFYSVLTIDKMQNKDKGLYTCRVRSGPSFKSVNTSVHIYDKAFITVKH

B1: 24-8 (ligand)
chain: AHYNTEILKSIDNEWRKTQCMPREVCIDVGKEFGVATNTFFKPSCVPLMRCGGCCNSEGLQCMNTSTSYLSKTLFEIKPHQGQHIGEMSFANHTSCRCMSKLD
no binding: [1] | [2] | [3]

B2: 24-11 (ligand)
chain: AHYNTEILKSIDNEWRKTQCMPREVCIDVGKEFGVATNTFFKPSCVPLMRCGGCCNSEGLQCVPTEESNITMQIMRITVPLSQGPKPVTISFLQHNKCECRPKKD
no binding: [1] | [2] | [3]

B3: 24-12 (ligand)
chain: AHYNTEILKSIDNEWRKTQCMPREVCIDVGKEFGVATNTFFKPSCVPLMRCGGCCNSEGLQCMNTSTSYLSKTLFEITVPLSQGPKPVTISFLQHNKCECRPKKD
no binding: [1] | [2] | [3]

B4: 24-13 (ligand)
chain: AHYNTEILKSIDNEWRKTQCMPREVCIDVGKEFGVATNTFFKPSCVPLMRCGGCCNDEGLECVPTEESNITMQIMRITVPLSQGPKPVTISFANHTSCRCMSKLD
no binding: [1] | [2] | [3]

B5: 24-15 (ligand)
chain: AHYNTEILKSIDNEWRKTQCMPREVCIDVGKEFGVATNTFFKPSCVPLMRCGGCCNSEGLQCVPTEESNITMQIMRITVPLSQGPKPVTISFANHTSCRCMSKLD
no binding: [1] | [2] | [3]

B6: 32-1 (ligand)
chain: GQNHHEVVKSIDNEWRKTQCMPIETLVDIFQEFGVATNTFFKPPCVSVYRCGGCCNDEGLECVPTEESNITMQIMRIKPHQGQHIGEMSFLQHNKCECRPKKD
no binding: [1] | [2] | [3]

B7: 32-3 (ligand)
chain: GQNHHEVVKSIDNEWRKTQCMPIETLVDIFQEFGVATNTFFKPPCVSVYRCGGCCNSEGLQCVPTEESNITMQIMRIKPHQGQHIGEMSFLQHNKCECRPKKD
no binding: [1] | [2] | [3]

B8: 21-12 (ligand)
chain: AHYNTEILKSIDNEWRKTQCMPREVCIDVGKEYPDEIEYIFKPSCVPLMRCGGCCNSEGLQCMNTSTSYLSKTLFEITVPLSQGPKPVTISFLQHNKCECRPKKD
no binding: [1] | [2] | [3]

B9: 32-5 (ligand)
chain: GQNHHEVVKSIDNEWRKTQCMPIETLVDIFQEFGVATNTFFKPPCVSVYRCGGCCNDEGLECVPTEESNITMQIMRIKPHQGQHIGEMSFANHTSCRCMSKLD
no binding: [1] | [2] | [3]

B10: 32-6 (ligand)
chain: GQNHHEVVKSIDNEWRKTQCMPIETLVDIFQEFGVATNTFFKPPCVSVYRCGGCCNDEGLECMNTSTSYLSKTLFEIKPHQGQHIGEMSFANHTSCRCMSKLD
no binding: [1] | [2] | [3]

B11: 32-7 (ligand)
chain: GQNHHEVVKSIDNEWRKTQCMPIETLVDIFQEFGVATNTFFKPPCVSVYRCGGCCNSEGLQCVPTEESNITMQIMRIKPHQGQHIGEMSFANHTSCRCMSKLD
no binding: [1] | [2] | [3]

B12: 32-8 (ligand)
chain: GQNHHEVVKSIDNEWRKTQCMPIETLVDIFQEFGVATNTFFKPPCVSVYRCGGCCNSEGLQCMNTSTSYLSKTLFEIKPHQGQHIGEMSFANHTSCRCMSKLD
no binding: [1] | [2] | [3]

B13: 32-13 (ligand)
chain: GQNHHEVVKSIDNEWRKTQCMPIETLVDIFQEFGVATNTFFKPPCVSVYRCGGCCNDEGLECVPTEESNITMQIMRITVPLSQGPKPVTISFANHTSCRCMSKLD
no binding: [1] | [2] | [3]

B14: 51-1 (ligand)
chain: AHYNTEILKSIDNEWRKTQCMPIETLVDIFQEYPDEIEYIFKPSCVPLMRCGGCCNDEGLECVPTEESNITMQIMRIKPHQGQHIGEMSFLQHNKCECRPKKD
no binding: [1] | [2] | [3]

B15: 51-2 (ligand)
chain: AHYNTEILKSIDNEWRKTQCMPIETLVDIFQEYPDEIEYIFKPSCVPLMRCGGCCNDEGLECMNTSTSYLSKTLFEIKPHQGQHIGEMSFLQHNKCECRPKKD
no binding: [1] | [2] | [3]

B16: 21-13 (ligand)
chain: AHYNTEILKSIDNEWRKTQCMPREVCIDVGKEYPDEIEYIFKPSCVPLMRCGGCCNDEGLECVPTEESNITMQIMRITVPLSQGPKPVTISFANHTSCRCMSKLD
no binding: [1] | [2] | [3]

B17: 51-3 (ligand)
chain: AHYNTEILKSIDNEWRKTQCMPIETLVDIFQEYPDEIEYIFKPSCVPLMRCGGCCNSEGLQCVPTEESNITMQIMRIKPHQGQHIGEMSFLQHNKCECRPKKD
no binding: [1] | [2] | [3]

B18: 51-4 (ligand)
chain: AHYNTEILKSIDNEWRKTQCMPIETLVDIFQEYPDEIEYIFKPSCVPLMRCGGCCNSEGLQCMNTSTSYLSKTLFEIKPHQGQHIGEMSFLQHNKCECRPKKD
no binding: [1] | [2] | [3]

B19: 51-5 (ligand)
chain: AHYNTEILKSIDNEWRKTQCMPIETLVDIFQEYPDEIEYIFKPSCVPLMRCGGCCNDEGLECVPTEESNITMQIMRIKPHQGQHIGEMSFANHTSCRCMSKLD
no binding: [1] | [2] | [3]

B20: 51-7 (ligand)
chain: AHYNTEILKSIDNEWRKTQCMPIETLVDIFQEYPDEIEYIFKPSCVPLMRCGGCCNSEGLQCVPTEESNITMQIMRIKPHQGQHIGEMSFANHTSCRCMSKLD
no binding: [1] | [2] | [3]

B21: 51-8 (ligand)
chain: AHYNTEILKSIDNEWRKTQCMPIETLVDIFQEYPDEIEYIFKPSCVPLMRCGGCCNSEGLQCMNTSTSYLSKTLFEIKPHQGQHIGEMSFANHTSCRCMSKLD
no binding: [1] | [2] | [3]

B22: 51-9 (ligand)
chain: AHYNTEILKSIDNEWRKTQCMPIETLVDIFQEYPDEIEYIFKPSCVPLMRCGGCCNDEGLECVPTEESNITMQIMRITVPLSQGPKPVTISFLQHNKCECRPKKD
no binding: [1] | [2] | [3]

B23: 51-11 (ligand)
chain: AHYNTEILKSIDNEWRKTQCMPIETLVDIFQEYPDEIEYIFKPSCVPLMRCGGCCNSEGLQCVPTEESNITMQIMRITVPLSQGPKPVTISFLQHNKCECRPKKD
no binding: [1] | [2] | [3]

B24: 51-13 (ligand)
chain: AHYNTEILKSIDNEWRKTQCMPIETLVDIFQEYPDEIEYIFKPSCVPLMRCGGCCNDEGLECVPTEESNITMQIMRITVPLSQGPKPVTISFANHTSCRCMSKLD
no binding: [1] | [2] | [3]

B25: 51-15 (ligand)
chain: AHYNTEILKSIDNEWRKTQCMPIETLVDIFQEYPDEIEYIFKPSCVPLMRCGGCCNSEGLQCVPTEESNITMQIMRITVPLSQGPKPVTISFANHTSCRCMSKLD
no binding: [1] | [2] | [3]

Reference: patent US20080058263A1 (published 2008)
